The nature of data set [1]: Dynamic light scattering of particles formed by cyclic peptide samples with siRNA. Format: physicochemical. Particulars: cyclic peptide/RNA mass ratio 4:1, DLS; for Zeta potential: in mV (unit assumed). As to the method: Utilizing the Malvern Zetasizer Nano ZS (Malvern Nano Particle Sizing Instrument), the particle size (Size), polydispersity index (PDI), and zeta potential (Zeta P) of the particles formed after samples 1-9 encapsulate siRNA at a cyclic peptide/RNA mass ratio of 4:1 were measured by dynamic light scattering (DLS).

A further data set deals with siRNA. Kind of data set: Agarose gel electrophoresis of cyclic peptide/siRNA formulations (encapsulation). Type of data set: physicochemical. To be noted: mass ratio of 4:1 of cyclic peptide/siRNA. As to the method: a. Weigh out 0.5 g of agarose powder and pour it into a conical flask, then add 50 mL of 1×TAE electrophoresis buffer into the flask. Dissolve it completely under heating conditions.
b. After cooling to 65° C., add 5 μL of ethidium bromide, swiftly pour into the gel casting tray, insert the comb, and let it stand at room temperature for 0.5-1 hour until the gel solidifies.
c. Next, remove the comb, pour 1×TAE electrophoresis buffer into the well to submerge the gel.
d. Prepare nine formulations of cyclic peptides with siRNA, using samples 1-9 at mass ratios of 1-4 of sample/siRNA. Mix 2 μL of 6× loading dye with 10 μL of samples, load 10 μL into the wells, and concurrently load 10 μL of DNA Marker and bare siRNA into the wells as controls.
e. Subsequently, run the electrophoresis at […] for 45 minutes, turn off the power supply, remove the gel, and observe and record the electrophoresis image with a UV gel imaging system.

Data set [2] can be described thus: Dynamic light scattering of cyclic peptide/siRNA and cyclic peptide/lipid/siRNA formulations. Format: physicochemical. Particulars: cyclic peptide/RNA 3:1; before and after binding with lipids (DSPC/cholesterol/RNA 2.4/3.1/1), DLS. An excerpt:
Sample 5 and 8 were selected and initially mixed in a microfluidic channel at a mass ratio of 3:1 cyclic peptide/RNA to form a particle solution, which was then left to stabilize.
The mass ratio of distearoylphosphatidylcholine (DSPC)/cholesterol/RNA was set at 2.4/3.1/1. DSPC and cholesterol were weighed and dissolved in a certain volume of ethanol solution.
The cyclic peptide/siRNA aqueous solution was mixed with the lipid ethanol solution through a microfluidic channel to form composite particles again, where the final concentration of ethanol was 25%. Dialysis was used to remove the ethanol, and the final lipid/cyclic peptide/nucleic acid composite particles were collected.
Using the Malvern Zetasizer Nano ZS, the particle size and polydispersity index (PDI) before and after binding with lipids (5-L and 8-L) were measured for sample 5 and 8 using dynamic light scattering.

In another data set the test system is 293T cells. As to the kind of experiment: EGFP mRNA transfection, fluorescence microscopy. To be noted: 24 hours, S5/mRNA mass ratios 10:1, 12.5:1, 15:1. Format: cell-based, human. An excerpt:
1. Sample preparation: Sample 5 (S5) was selected and mixed in a microfluidic channel to form a particle solution at different cyclic peptide/mRNA mass ratios (10:1, 12.5:1, 15:1), and then left to stabilize.
2. Control formulation: A lipid nanoparticle (LNP) control at a ratio of 4-(N,N-dimethylamino) butyric acid (dilinoleyl) methyl ester/DSPC/cholesterol/1,2-dimyristoyl-rac-glycerol-3-methoxypolyethylene glycol 2000=50:10:38.5:1.5 was used and mRNA was encapsulated according to the method described in Embodiment 3.
3. Cell plating: 293T cells were plated in a 24-well plate with 9 wells per cell type, each well containing 1 ml of medium and 1×10^5 cells, grown for 12 hours until adherence.
4. Solution preparation: PBS (control); for each group in 3 ml serum-free medium, 3×20 μl=60 μl of prepared sample was added and mixed well, 1 ml per well. Transfection group (lipo2000); in 1.2 ml serum-free medium, add 30 μl of mRNA at a concentration of 0.1 μg/μl and 3 μl×3=9 μl of lipo2000, mix well, let stand for 5-10 min. Cells were washed, transfection reagent was added at 400 μl per well, topped up with 600 μl DMEM complete medium. […]
5. Photo capture: Fluorescence photo: exposure time 600 ms, exposure magnification 14, exposure brightness +1; white light photo: exposure time 10 ms, exposure magnification 1, exposure brightness +1.

Bridge positions count the residues as written; N and C are the ends. Ends that are not written are not given here.

On to “Lys-Lys-Leu-Lys-Lys-Leu-Cys-Lys-Lys-Lys-Lys-Lys-Lys-Lys-Lys-Lys-Lys-Lys-Lys-Lys-Lys-Cys-Leu-Lys-Lys-Leu-Lys-Lys (KKLKKLCKKKKKKKKKKKKKKCLKKLKK; disulfide 7-22 (inferred)) [Sample 3]”, for which, in data set [1], the Polydispersity index is 0.065, the Size amounted to 299.1 nm and the Zeta potential is reported as 21.3.

“Ala-Ala-Leu-Ala-Ala-Leu-Ala-Ala-Leu-Cys-Lys-Lys-Lys-Lys-Lys-Cys-Leu-Ala-Ala-Leu-Ala-Ala-Leu-Ala-Ala (AALAALAALCKKKKKCLAALAALAA; disulfide 10-16 (inferred)) [Sample 1]”: in data set [1], the Polydispersity index was determined as 0.254, the Size is listed as 159.6 nm and the Zeta potential is listed as 7.09.

For the substance “Lys-Ala-Met-Leu-Lys-Ala-Met-Leu-Lys-Ala-Met-Leu-Cys-Lys-Lys-Lys-Lys-Lys-Lys-Lys-Lys-Lys-Lys-Lys-Lys-Lys-Lys-Lys-Cys-Leu-Met-Ala-Lys-Leu-Met-Ala-Lys-Leu-Met-Ala-Lys (KAMLKAMLKAMLCKKKKKKKKKKKKKKKCLMAKLMAKLMAK; disulfide 13-29 (inferred)) [Sample 7]”, in data set [1], the Polydispersity index turned out to be 0.139, the Size was 145.1 nm and the Zeta potential is on record as 26.3. In the data set with siRNA, the “encapsulation of siRNA (agarose gel electrophoresis)” value (from here on “encapsulation of siRNA”) is “encapsulate siRNA effectively”.

As for “Arg-Asp-Gly-Lys-Lys-Lys-Leu-Lys-Lys-Lys-Leu-Cys-Gln-Leu-Ile-Lys-Gln-Leu-Ile-Lys-Gln-Leu-Ile-Lys-Gln-Leu-Ile-Lys-Ile-Leu-Gln-Cys-Leu-Lys-Lys-Lys-Leu-Lys-Lys-Lys-Gly-Asp-Arg (RDGKKKLKKKLCQLIKQLIKQLIKQLIKILQCLKKKLKKKGDR; disulfide 12-32 (inferred)) [Sample 8]”, in data set [1], the Polydispersity index was 0.143, the Size was determined as 29.92 nm and the Zeta potential was 16.5. In addition, in the data set with siRNA, the “encapsulation of siRNA” value was “encapsulate siRNA effectively”. In data set [2], the PDI is 0.15 and the Size was 31.85 nm.

With “Lys-Lys-Leu-Lys-Lys-Leu-Lys-Lys-Leu-Lys-Lys-Leu-Cys-Ala-Phe-Lys-Ala-Phe-Lys-Ala-Phe-Lys-Ala-Phe-Lys-Phe-Ala-Cys (KKLKKLKKLKKLCAFKAFKAFKAFKFAC; disulfide 13-28 (inferred)) [Sample 4]”, in data set [1], the Polydispersity index was 0.542, the Size worked out at 264.5 nm and the Zeta potential is reported as 18.6. In the data set on siRNA, the “encapsulation of siRNA” value was “poor encapsulation effects”.

For “KKMLKKMLCQKKKKKQCLMKKLMKK (cysteine pairing not given here) [Sample 2]”, in data set [1], the Polydispersity index is 0.326, the Size is recorded as 211.9 nm and the Zeta potential was determined as 34.1.

Consider “Lys-Leu-Leu-Lys-Leu-Leu-Lys-Leu-Leu-Lys-Leu-Leu-Cys-Lys-Lys-Lys-Lys-Lys-Cys-Leu-Leu-Lys-Leu-Leu-Lys-Leu-Leu-Lys-Leu-Leu-Lys (KLLKLLKLLKLLCKKKKKCLLKLLKLLKLLK; disulfide 13-19 (inferred)) [Sample 5]”, for which, in the data set with 293T cells, the “green fluorescent protein expression intensity versus control LNP group” value is reported as “more pronounced green fluorescent protein compared to the control LNP group”. Besides, in data set [1], the Polydispersity index is reported as 0.133 and the Size worked out at 81.02 nm. Also, the “encapsulation of siRNA” value in the data set with siRNA is listed as “encapsulate siRNA effectively”. In data set [2], this substance had a PDI of 0.176 and a Size of 60.17 nm.

Consider “Lys-Gln-Val-Leu-Lys-Gln-Val-Leu-Cys-Gln-Lys-Lys-Lys-Gln-Lys-Lys-Lys-Gln-Lys-Lys-Lys-Gln-Lys-Lys-Lys-Lys-Lys-Gln-Cys-Leu-Val-Gln-Lys-Leu-Val-Gln-Lys (KQVLKQVLCQKKKQKKKQKKKQKKKKKQCLVQKLVQK; disulfide 9-29 (inferred)) [Sample 6]”, for which, in data set [1], the Polydispersity index is given as 0.355, the Size is listed as 32.58 nm and the Zeta potential turned out to be 21.2.

With “Arg-Asp-Gly-Lys-Val-Gln-Leu-Lys-Val-Gln-Leu-Cys-Gln-Lys-Lys-Lys-Gln-Lys-Lys-Lys-Gln-Lys-Lys-Lys-Gln-Lys-Lys-Lys-Lys-Lys-Gln-Cys-Leu-Gln-Val-Lys-Leu-Gln-Val-Lys-Gly-Asp-Arg (RDGKVQLKVQLCQKKKQKKKQKKKQKKKKKQCLQVKLQVKGDR; disulfide 12-32 (inferred)) [Sample 9]”, in data set [1], the Polydispersity index was found to be 0.169, the Size was found to be 111.3 nm and the Zeta potential amounted to 23.0. In addition, the “encapsulation of siRNA” value in the data set on siRNA is “encapsulate siRNA effectively”.

(Values after patent US20240409586A1, “CYCLIC POLYPEPTIDE CARRIER FOR EFFICIENT DELIVERY OF NUCLEIC ACID, AND VARIANTS THEREOF” (SUZHOU HEALIRNA BIOTECHNOLOGY CO., LTD., priority 2022, published 2024).)
